Results on five molecules are retold here after patent US20120077731A1 (Ablynx, published 2012).

Where “and” joins values, the source holds several entries; their conditions need not be identical. Identical values can stand only once.

Experiment [1] deals with T1, Human membrane IL-6R on cells (human, UniProt P08887 20-468).
T1 sequence (looked up): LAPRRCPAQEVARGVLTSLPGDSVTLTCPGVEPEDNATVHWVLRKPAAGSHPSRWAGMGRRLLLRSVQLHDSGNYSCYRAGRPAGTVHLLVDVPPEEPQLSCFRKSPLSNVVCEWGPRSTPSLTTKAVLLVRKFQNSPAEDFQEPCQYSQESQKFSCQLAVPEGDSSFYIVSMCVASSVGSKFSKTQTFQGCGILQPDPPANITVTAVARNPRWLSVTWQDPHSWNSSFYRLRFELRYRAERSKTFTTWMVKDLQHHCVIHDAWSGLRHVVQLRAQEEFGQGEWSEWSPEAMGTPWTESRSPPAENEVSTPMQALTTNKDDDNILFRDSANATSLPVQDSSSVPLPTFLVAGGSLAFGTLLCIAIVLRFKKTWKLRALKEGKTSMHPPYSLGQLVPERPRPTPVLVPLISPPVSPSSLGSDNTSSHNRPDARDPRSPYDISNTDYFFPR
Kind of experiment: cell-based or functional assay.

For experiment [2], the target named is T1, Human membrane IL-6R on cells. In words: cell-based or functional assay. This is another data set of the same source.
Experiment [3] has the same target. In words: cell-based or functional assay. This is another data set of the same source.
In experiment [4] the target is T2, Human soluble IL-6R (human, UniProt P08887 20-358).
T2 construct: Soluble recombinant form; biotinylated in some assays; also called hIL-6R; human IL-6R
T2 sequence (looked up): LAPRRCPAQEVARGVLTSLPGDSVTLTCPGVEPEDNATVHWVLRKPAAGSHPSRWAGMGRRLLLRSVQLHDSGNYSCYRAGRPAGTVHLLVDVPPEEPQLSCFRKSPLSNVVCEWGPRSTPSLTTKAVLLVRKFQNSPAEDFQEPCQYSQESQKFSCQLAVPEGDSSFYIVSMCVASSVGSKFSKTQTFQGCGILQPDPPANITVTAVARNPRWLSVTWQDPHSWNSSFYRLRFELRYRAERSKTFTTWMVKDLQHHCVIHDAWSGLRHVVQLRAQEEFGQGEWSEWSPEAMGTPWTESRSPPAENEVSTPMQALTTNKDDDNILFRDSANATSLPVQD
In words: Biacore off-rate, periplasmic extract. On the technique in general: Surface plasmon resonance follows binding to a sensor surface in real time, without labels.

Experiment [5] has as its target T2, Human soluble IL-6R. In words: SPR Biacore 3000, IL-6R amine-coupled to CM5.
Protocol: (§1) Nanobodies were injected at 5 different concentrations between 1 and 50 nM. Flow rate was 45 μl/min in all experiments. Association and dissociation phase were 3 and 10 min, respectively. The chip was regenerated using Glycine/HCl pH 1.5.
Experiment [6] has as its target T2, Human soluble IL-6R. In words: Alphascreen, inhibition of bio-IL-6 binding to IL-6R. On the technique in general: Bead proximity is the source of the signal in Alpha formats.
Protocol: (§2) Finally streptavidin donor beads were added and after 1 hour incubator the plate was read on the Envision microplate reader.
Experiment [7] addresses T2, Human soluble IL-6R. In words: summary table C-13 of Nanobody characteristics, Kd on IL-6R.
Protocol: as §1
The target in experiment [8] is T2, Human soluble IL-6R. Kind of experiment: inhibition of the IL-6/IL-6R interaction, summary table C-13.
Protocol: as §2
In experiment [9] the target is T2, Human soluble IL-6R. In words: competition for IL-6R, competitor reference Fab, summary table C-13.
Experiment [10] has as its target T2, Human soluble IL-6R. In words: Alphascreen, 100 nM Nanobody, 0.4 nM bio-IL-6R; competitor: reference Fab.
The target in experiment [11] is T3, Mouse IL-6R (mouse, UniProt P22272 20-364, limits assumed).
T3 construct: also called mouse sIL-6R
T3 sequence (looked up): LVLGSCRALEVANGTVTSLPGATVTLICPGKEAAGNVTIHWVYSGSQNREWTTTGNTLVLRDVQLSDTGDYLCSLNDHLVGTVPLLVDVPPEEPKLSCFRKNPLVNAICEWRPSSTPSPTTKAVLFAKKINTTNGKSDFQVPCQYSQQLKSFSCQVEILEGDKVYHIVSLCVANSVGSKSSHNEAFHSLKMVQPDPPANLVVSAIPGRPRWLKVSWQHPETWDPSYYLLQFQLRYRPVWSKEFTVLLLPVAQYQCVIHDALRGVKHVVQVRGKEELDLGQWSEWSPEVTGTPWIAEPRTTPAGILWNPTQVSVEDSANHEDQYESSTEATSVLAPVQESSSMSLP
In words: ELISA: plate coated with 1 µg/ml mouse IL-6R, 500 nM Nanobody, anti-myc + anti-mouse-HRP. Background: In an ELISA, binding on a coated surface is turned into a signal by an enzyme label.
Protocol: Detection was performed with anti-myc and anti-mouse-HRP as first and second antibody respectively.

Experiment [12] concerns the target T2, Human soluble IL-6R. Kind of experiment: Biacore off-rate, periplasmic extracts.

B1: IL6R09 (VHH)
VHH: EVQLVESGGGLVQAGGSLRLSCAASGRTSSSYDMTWYRQVPGKEREFVAVISWSGGSTYYADSVKGRFTISRDNAKNTVYLQMNSLKPEDTAIYYCNAYTGGGDDYWGQGTQVTVSS
notes: also called PMP34G9; not shown: C-terminal c-myc and (His)6 tags
The term koff denotes the rate constant with which the complex falls apart. High values mean a short-lived complex, low ones a long-lived complex. For orientation: Kd means the concentration at which binding is half-saturated. For orientation: kon means a measure of how fast the partners come together. Broadly, the IC50 is the concentration needed to halve the response being measured. A higher IC50 goes with a need for much substance. On to B1, for which, in [1], the “IC50 (nM) + HSA, XG-1 cell proliferation” value stood at 3 nM and the “IC50 (nM), XG-1 cell proliferation” value stood at 2.7 nM. The “IC50 (nM), TF1 cell proliferation” value in [2] turned out to be 8.7 nM. The “IC50 (nM) XG-1” value in experiment [3] stood at 2.7 nM. For the same molecule, in experiment [4], the koff worked out at 0.00139 s⁻¹. In experiment [5], the Kd is 2 nM and 1.2 nM; the koff is 0.00129 s⁻¹ and 0.0013 s⁻¹ and 0.00139 s⁻¹; the association rate constant (kon) was 641000 M⁻¹ s⁻¹ and 1.11e+06 M⁻¹ s⁻¹. In addition, in [6], the IC50 turned out to be 0.238 nM. Besides, in [7], the Kd was 2 nM. In addition, in experiment [8], half-maximal inhibition (IC50) was put at 0.24 nM. Also, the “Ref Fab competition (%)” value in experiment [9] was 62%. The “Residual reference-Fab binding to IL-6R (%)” value in experiment [10] amounted to 62%. Besides, in experiment [11], the binding result is listed as “no binding (tested: 500 nM)”.

B2: IL6R14 (VHH)
VHH: EVQLVESGGGLVQPGGSLRLSCAASGFSLDYYAIGWFRQAPGKEREGVSCMDSSSGTTSTYYSDSVKGRFTISRDDAKNTVYLQMNSLKPEDTAVYYCAADGHLNWGQRYVPCSQISWRGWNDYWGQGTQVTVSS
notes: also called PMP40H5; not shown: C-terminal c-myc and (His)6 tags
Take B2: in [1], the “IC50 (nM) + HSA, XG-1 cell proliferation” value amounted to 0.8 nM and the “IC50 (nM), XG-1 cell proliferation” value was 0.6 nM. The “IC50 (nM), TF1 cell proliferation” value in experiment [2] was determined as 1.5 nM. Further, in experiment [3], the “IC50 (nM) XG-1” value stood at 0.6 nM. The molecule further had a koff in [4] of 0.000114 s⁻¹. In experiment [5], the Kd turned out to be 0.3 nM; the dissociation rate constant (koff) was 0.0001 s⁻¹ and 0.000114 s⁻¹; the kon is 402000 M⁻¹ s⁻¹. In [6], this molecule came in with an IC50 of 0.222 nM. Binding in experiment [7] was characterised by a dissociation constant (Kd) of 0.3 nM. In addition, the IC50 in experiment [8] was 0.22 nM. Besides, the “Ref Fab competition (%)” value in experiment [9] came out at 96%. The “Residual reference-Fab binding to IL-6R (%)” value in experiment [10] amounted to 96%. For the same molecule, the binding result in experiment [11] was “no binding (tested: 500 nM)”.

B3: IL6R10 (VHH)
VHH: EVQLVESGGGLVQAGGSLRLSCAASGRTFSSYDMGWYRQAPGKEREFVAVIHWSSGSTYYADPVKGRFTISRDNAKNTVYLQMNSLKPEDTAIYYCNAFLPGPEGFHDYWGQGTQVTVSS
notes: also called PMP35C10; not shown: C-terminal c-myc and (His)6 tags
With B3, in experiment [1], the “IC50 (nM), XG-1 cell proliferation” value was found to be 2.5 nM. The “IC50 (nM), TF1 cell proliferation” value in experiment [2] is 9.9 nM. The “IC50 (nM) XG-1” value in experiment [3] worked out at 2.5 nM. Further, the koff in experiment [4] is 0.000509 s⁻¹; in [5], 0.000526 s⁻¹ and 0.000509 s⁻¹. Moreover, the Kd in experiment [5] and in experiment [7] was 1.3 nM each time. The molecule also had a kon in experiment [5] of 414000 M⁻¹ s⁻¹. Further, the IC50 in [6] was 0.596 nM; in [8], 0.6 nM. Moreover, the “Ref Fab competition (%)” value in experiment [9] amounted to 102%. Also, the “Residual reference-Fab binding to IL-6R (%)” value in experiment [10] is 102%. The binding result in experiment [11] is reported as “no binding (tested: 500 nM)”.

B4: IL6R85 (VHH)
VHH: EVQLVESGGGLVQPGGSLRLSCAASGFTFDDYGMSWVRQAPGRGLEWVSAISWNGNNTYYTESMKGRFTISRDNAKNTLYLQMNSLRPEDTAVYYCVKGSTAIVGVPPTYPDEYDYWGQGTLVTVSS
notes: IL6R13 variant, tested as periplasmic extract
On to B4, for which the koff in experiment [12] amounted to 0.0021 s⁻¹.

B5: IL6R12 (VHH)
VHH: EVQLVESGGGLVQAGGSLRLSCAASGRTFSSYDMGWYRQAPGKEREFVAIITWNSSTYYADSVKGRFTISRDNAKNTVYLQMNSLKPEDTAIYYCNAQYGLGYAEDYWGQGTQVTVSS
notes: also called PMP35F4; not shown: C-terminal c-myc and (His)6 tags
For B5, the “IC50 (nM), XG-1 cell proliferation” value in experiment [1] was 2.8 nM. In experiment [2], the “IC50 (nM), TF1 cell proliferation” value turned out to be 6.8 nM. Besides, the “IC50 (nM) XG-1” value in experiment [3] worked out at 2.8 nM. For the same molecule, the koff in [4] is 0.000896 s⁻¹; in experiment [5] it was 0.00116 s⁻¹ and 0.000896 s⁻¹. Further, the Kd in [5] and in experiment [7] was 1.7 nM throughout. The same molecule returned a kon in experiment [5] of 678000 M⁻¹ s⁻¹. The IC50 in experiment [6] is 0.517 nM; in experiment [8] it was 0.52 nM. The “Ref Fab competition (%)” value in experiment [9] turned out to be 103%. In addition, the “Residual reference-Fab binding to IL-6R (%)” value in experiment [10] turned out to be 103%. The binding result in experiment [11] is listed as “no binding (tested: 500 nM)”.
